Values quoted from earlier work as cited in article PMC6721559.
pKd: −log10 of the molar value.

Molecular target: Ubc9 (Homo sapiens) (UniProt P63279)
Sequence of UniProt P63279 (P63279 2-158): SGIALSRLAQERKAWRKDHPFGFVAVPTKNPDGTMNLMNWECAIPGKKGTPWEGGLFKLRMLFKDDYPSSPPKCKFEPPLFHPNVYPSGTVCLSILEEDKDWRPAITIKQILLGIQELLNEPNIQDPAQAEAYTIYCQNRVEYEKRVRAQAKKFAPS

pKd: 7.09
Substance: SUMO (from UniProt P63165)
